The text below walks through data of article PMC5325763 (Cell, 2017).

This experiment has as its target T1, FLAG-tagged FAAP20 (human, UniProt Q6NZ36 1-180).
T1 sequence (looked up): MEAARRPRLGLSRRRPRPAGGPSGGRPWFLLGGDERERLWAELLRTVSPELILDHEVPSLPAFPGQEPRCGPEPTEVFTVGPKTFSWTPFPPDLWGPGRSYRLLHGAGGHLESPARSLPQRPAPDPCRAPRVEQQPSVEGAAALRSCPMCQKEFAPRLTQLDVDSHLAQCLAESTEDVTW
Nature of the experiment: LUMIER.

B1: Renilla luciferase-tagged FANCA R880Q (natural protein, human, UniProt O15360-1 1-1455, looked up)
chain: MSDSWVPNSASGQDPGGRRRAWAELLAGRVKREKYNPERAQKLKESAVRLLRSHQDLNALLLEVEGPLCKKLSLSKVIDCDSSEAYANHSSSFIGSALQDQASRLGVPVGILSAGMVASSVGQICTAPAETSHPVLLTVEQRKKLSSLLEFAQYLLAHSMFSRLSFCQELWKIQSSLLLEAVWHLHVQGIVSLQELLESHPDMHAVGSWLFRNLCCLCEQMEASCQHADVARAMLSDFVQMFVLRGFQKNSDLRRTVEPEKMPQVTVDVLQRMLIFALDALAAGVQEESSTHKIVRCWFGVFSGHTLGSVISTDPLKRFFSHTLTQILTHSPVLKASDAVQMQREWSFARTHPLLTSLYRRLFVMLSAEELVGHLQEVLETQEVHWQRVLSFVSALVVCFPEAQQLLEDWVARLMAQAFESCQLDSMVTAFLVVRQAALEGPSAFLSYADWFKASFGSTRGYHGCSKKALVFLFTFLSELVPFESPRYLQVHILHPPLVPGKYRSLLTDYISLAKTRLADLKVSIENMGLYEDLSSAGDITEPHSQALQDVEKAIMVFEHTGNIPVTVMEASIFRRPYYVSHFLPALLTPRVLPKVPDSRVAFIESLKRADKIPPSLYSTYCQACSAAEEKPEDAALGVRAEPNSAEEPLGQLTAALGELRASMTDPSQRDVISAQVAVISERLRAVLGHNEDDSSVEISKIQLSINTPRLEPREHMAVDLLLTSFCQNLMAASSVAPPERQGPWAALFVRTMCGRVLPAVLTRLCQLLRHQGPSLSAPHVLGLAALAVHLGESRSALPEVDVGPPAPGAGLPVPALFDSLLTCRTRDSLFFCLKFCTAAISYSLCKFSSQSRDTLCSCLSPGLIKKFQFLMFRLFSEAQQPLSEEDVASLSWRPLHLPSADWQRAALSLWTHRTFREVLKEEDVHLTYQDWLHLELEIQPEADALSDTERQDFHQWAIHEHFLPESSASGGCDGDLQAACTILVNALMDFHQSSRSYDHSENSDLVFGGRTGNEDIISRLQEMVADLELQQDLIVPLGHTPSQEHFLFEIFRRRLQALTSGWSVAASLQRQRELLMYKRILLRLPSSVLCGSSFQAEQPITARCEQFFHLVNSEMRNFCSHGGALTQDITAHFFRGLLNACLRSRDPSLMVDFILAKCQTKCPLILTSALVWWPSLEPVLLCRWRRHCQSPLPRELQKLQEGRQFASDFLSPEAASPAPNPDWLSAAALHFAIQQVREENIRKQLKKLDCEREELLVFLFFFSLMGLLSSHLTSNSTTDLPKAFHVCAAILECLEKRKISWLALFQLTESDLRLGRLLLRVAPDQHTRLLPFAFYSLLSYFHEDAAIREEAFLHVAVDMYLKLVQLFVAGDTSTVSPPAGRSLELKGQGNPVELITKARLFLLQLIPRCPKKSFSHVAELLADRGDCDPEVSAALQSRQQAAPDADLSQEPHLF
On to B1, for which the “fold weaker binding than wild-type FANCA” value was roughly 8 fold.
